This is an account of results in article PMC3762362.

Bounds are passed on as bounds.

In assay [1] the target is SNAP-tagged S. cerevisiae Arp2/3 complex labeled with Dy649 (Arp2/3-SNAP649) (S. cerevisiae) (UniProt P32381).
Assay [2] has the same target. The assay is described as follows: colocalization single molecule spectroscopy (CoSMoS, TIRF); biotinylated AF488-actin filaments tethered to the slide; 5 nM Arp2/3-SNAP649, 5 nM Cy3-diVCA construct and 1 μM actin (10% AF488 labeled) in solution; TIRF buffer; time resolution 0.15 s.
For assay [3] the target is unchanged. This is another data set of the same source.
For assay [4], the target named is SNAP-tagged S. cerevisiae Arp2/3 complex labeled with Dy649 and biotin (Arp2/3-SNAP649-biotin) (S. cerevisiae) (UniProt P32381). Nature of the assay: colocalization single molecule spectroscopy (CoSMoS, TIRF); Arp2/3-SNAP649-biotin tethered to the slide through streptavidin; 0.1–2 nM Cy3-diVCA construct and 1 μM actin (10% AF488 labeled) in solution; periods with no filament colocalized; TIRF buffer (50 mM KCl, 1 mM MgCl2, 1 mM EGTA, 10 mM imidazole pH 7.2).

In assay [5] the target is VVCA-A462C-AF594 (N-WASP 393–505, C431A, A462C, AlexaFluor 594 labeled) (human) (UniProt O00401). Nature of the assay: fluorescence polarisation; fluorescence anisotropy, direct binding of 20 nM VVCA-A462C-AF594 to bovine Arp2/3 complex; no actin; 10 min incubation.
Sequence of VVCA-A462C-AF594 (N-WASP 393–505, C431A, A462C, AlexaFluor 594 labeled) (human) (O00401 393-505 C431A/A462C): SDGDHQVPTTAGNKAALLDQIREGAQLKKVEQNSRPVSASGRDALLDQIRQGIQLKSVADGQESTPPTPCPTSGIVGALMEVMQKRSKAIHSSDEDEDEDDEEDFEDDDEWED
In assay [6] the target is Endogenous bovine Arp2/3 complex (bovine (endogenous in calf thymus)) (UniProt A7MB62). The assay is described as follows: fluorescence polarisation; fluorescence anisotropy competition: VVCA-A462C-AF594 reporter with 200 nM bovine Arp2/3 complex and increasing unlabeled GST-VCA, GST-VVCA or GST-VCA-C*; fit to a competition-binding isotherm. Background: Fluorescence polarisation rises when a labelled molecule tumbles more slowly, as on binding a larger partner.

Assay [7] has as its target VCA-AF594 (N-WASP VCA 430–505, S430C, C431A, AlexaFluor 594 labeled) (human) (UniProt O00401). Nature of the assay: fluorescence polarisation; fluorescence anisotropy of 10 nM VCA-AF594 with increasing non-polymerizable Drosophila 5C actin or yeast Arp2/3 complex; single site binding isotherm.
The target in assay [8] is Surface-tethered actin filaments (10% AF488 labeled, 1% biotinylated) (rabbit) (UniProt P68135). The assay is described as follows: colocalization single molecule spectroscopy (CoSMoS, TIRF); biotinylated AF488-actin filaments tethered to the slide; 5 nM Arp2/3-SNAP649, 5 nM Cy3-diVCA construct and 1 μM actin (10% AF488 labeled) in solution; TIRF buffer; time resolution 0.15 s.

Assay [9] shares this target. The assay is described as follows: colocalization single molecule spectroscopy (CoSMoS, TIRF); biotinylated AF488-actin filaments tethered to the slide; Arp2/3-SNAP649 and 1 μM actin in solution, no VCA; TIRF buffer; rate constant per filament subunit.

Sequence of Cy3-diVCA wild-type (N-WASP VCA covalently dimerized with a Cy3 bis-maleimide) (O00401 other isoform, or with tags, fused parts or gaps): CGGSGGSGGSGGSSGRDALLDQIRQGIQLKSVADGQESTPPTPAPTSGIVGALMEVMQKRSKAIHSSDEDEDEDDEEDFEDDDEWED
Sequence of Cy3-diVCA-A* (Δ486–488) (O00401 other isoform, or with tags, fused parts or gaps mutant): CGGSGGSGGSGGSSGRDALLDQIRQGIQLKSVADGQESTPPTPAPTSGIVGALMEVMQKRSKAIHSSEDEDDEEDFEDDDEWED
Sequence of VCA-AF594 (N-WASP VCA 430–505, S430C, C431A, AlexaFluor 594 labeled) (human) (O00401 430-505 S430C/C431A): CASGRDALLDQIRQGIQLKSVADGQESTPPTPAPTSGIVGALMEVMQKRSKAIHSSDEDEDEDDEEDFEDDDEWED

For “Cy3-diVCA wild-type (N-WASP VCA covalently dimerized with a Cy3 bis-maleimide) (from UniProt O00401 432-505) (domain or fragment)”, the kB, second order rate constant for branch formation (per mother filament subunit), single-molecule TIRF in assay [1] was 160 M⁻¹ s⁻¹. For the same substance, in [2], the fAV, fraction of Arp2/3 complexes that bind filament sides coincident with diVCA was determined as 0.83; the kV*, rate constant for diVCA release from the nascent branch (filament-bound Arp2/3 complex) stood at 0.04 s⁻¹; the τV*, mean lifetime of diVCA on nascent branches (filament-bound Arp2/3 complex) was determined as 0.7 s. The substance further registered a fold stimulation of Arp2/3 complex-dependent nucleation in bulk pyrene-actin assays (barbed ends at the midpoint; 25 nM diVCA construct, 10 nM Arp2/3-SNAP) in assay [3] of 2 fold. Further, in [4], the Kd (usually the concentration at which binding is half-saturated) is less than 2 nM; the kon (as a rule, a measure of how fast the partners come together) turned out to be 1.6e+08 M⁻¹ s⁻¹; the percent of tethered Arp2/3 complexes observed to bind diVCA was more than 80%; the τV1, first characteristic lifetime of diVCA on isolated Arp2/3 complexes turned out to be 8 s. The same substance displayed a τV2, second characteristic lifetime of diVCA on isolated Arp2/3 complexes in [4] of 61 s.
“Cy3-diVCA-A* (Δ486–488) (from UniProt O00401 432-505) (domain or fragment)” showed a kB, second order rate constant for branch formation (per mother filament subunit), single-molecule TIRF in [1] of 100 M⁻¹ s⁻¹. For the same substance, in assay [2], the fAV, fraction of Arp2/3 complexes that bind filament sides coincident with diVCA is 0.7; the kV*, rate constant for diVCA release from the nascent branch (filament-bound Arp2/3 complex) is 0.022 s⁻¹; the τV*, mean lifetime of diVCA on nascent branches (filament-bound Arp2/3 complex) was determined as 0.7 s. Moreover, the fold stimulation of Arp2/3 complex-dependent nucleation in bulk pyrene-actin assays (barbed ends at the midpoint; 25 nM diVCA construct, 10 nM Arp2/3-SNAP) in assay [3] is 1.4 fold. In [4], this substance yielded a kon of 1.6e+08 M⁻¹ s⁻¹; a τV1, first characteristic lifetime of diVCA on isolated Arp2/3 complexes of 40 s; a τV2, second characteristic lifetime of diVCA on isolated Arp2/3 complexes of 250 s.
Turning to “Cy3-diVCA-C* (I467A) (from UniProt O00401 432-505) (domain or fragment)”, the kB, second order rate constant for branch formation (per mother filament subunit), single-molecule TIRF in assay [1] was determined as 200 M⁻¹ s⁻¹. In [2], this substance showed a fAV, fraction of Arp2/3 complexes that bind filament sides coincident with diVCA of 0.59; a kV*, rate constant for diVCA release from the nascent branch (filament-bound Arp2/3 complex) of 0.05 s⁻¹; a τV*, mean lifetime of diVCA on nascent branches (filament-bound Arp2/3 complex) of 0.37 s. Besides, the fold stimulation of Arp2/3 complex-dependent nucleation in bulk pyrene-actin assays (barbed ends at the midpoint; 25 nM diVCA construct, 10 nM Arp2/3-SNAP) in assay [3] came to 6 fold. Also, in [4], the kon turned out to be 6e+07 M⁻¹ s⁻¹; the τV1, first characteristic lifetime of diVCA on isolated Arp2/3 complexes was found to be 2.4 s; the τV2, second characteristic lifetime of diVCA on isolated Arp2/3 complexes came to 14 s.
“Cy3-diVCA-V* (D435S/A436D) (from UniProt O00401 432-505) (domain or fragment)” displayed a kB, second order rate constant for branch formation (per mother filament subunit), single-molecule TIRF in assay [1] of 320 M⁻¹ s⁻¹. In [2], this substance displayed a fAV, fraction of Arp2/3 complexes that bind filament sides coincident with diVCA of 0.7; a kV*, rate constant for diVCA release from the nascent branch (filament-bound Arp2/3 complex) of 0.08 s⁻¹; a τV*, mean lifetime of diVCA on nascent branches (filament-bound Arp2/3 complex) of 0.54 s. In addition, the fold stimulation of Arp2/3 complex-dependent nucleation in bulk pyrene-actin assays (barbed ends at the midpoint; 25 nM diVCA construct, 10 nM Arp2/3-SNAP) in assay [3] was 10 fold. In assay [4], this substance gave a kon of 7e+07 M⁻¹ s⁻¹; a τV1, first characteristic lifetime of diVCA on isolated Arp2/3 complexes of 3.6 s; a τV2, second characteristic lifetime of diVCA on isolated Arp2/3 complexes of 56 s.
Consider “Endogenous bovine Arp2/3 complex (from UniProt A7MB62 1-394; P61157 1-418)”, for which the Kd in assay [5] was determined as 150 nM.
As for “GST-VCA-C* (GST fusion of N-WASP VCA with the C* mutation) (from UniProt O00401 432-505) (domain or fragment)”, the fold weaker affinity than GST-VCA in assay [6] turned out to be 4 fold.
“S. cerevisiae Arp2/3 complex purified from commercial baker's yeast (from UniProt P32381 1-391; P47117 1-449; Q05933 1-178)” yielded a Kd in assay [7] of 65 nM.
In assay [8], “SNAP-tagged S. cerevisiae Arp2/3 complex labeled with Dy649 (Arp2/3-SNAP649) (from UniProt P32381 1-391; P47117 1-449; Q05933 1-178)” had a kA+ (binding to filament sides, per filament subunit) with diVCA A* present of 8000 M⁻¹ s⁻¹; a kA+ (binding to filament sides, per filament subunit) with diVCA C* present of 20000 M⁻¹ s⁻¹; a kA+ (binding to filament sides, per filament subunit) with diVCA V* present of 13000 M⁻¹ s⁻¹; a kA+ (binding to filament sides, per filament subunit) with diVCA w.t. present of 21000 M⁻¹ s⁻¹. The substance further gave a kon in assay [9] of 20000 M⁻¹ s⁻¹.
